Measured values: the RNAGym collection of RNA variant scans (doi:10.1073/pnas.2313332121)
This sample holds only a part of the variants without activity.

B1: TPR 5TU (parent)
chain: GGAUCUUCUCGAUCUAACAAAAAAGACAAAUCUGCCACAAAGCUUGAGAGCAUCUUCGGAUGCAGAGGCGGCAGCCUUCGGUGGCGCGAUAGCGCCAACGUUCUCAACUAUGACACGCAAAACGCGUGCUCCGUUGAAUGGAGUUUAUCAUG

Variants of: B1
Assay: polymerase ribozyme fitness, log enrichment relative to wild type (log ratio); higher = more active; in vitro selection for triplet polymerase activity
In short: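 Only genotypes with ≥10 input reads and ≥1 read per output were kept after Illumina sequencing of input and output libraries. These libraries were PCR-built, transcribed mutants of each subunit of a heterodimeric triplet polymerase ribozyme, each put through one triplicate in vitro selection round with frozen incubation at −7 °C, gel excision of extended constructs, streptavidin-bead capture and RT-PCR. Fitness is a logarithmic ratio of genotype enrichment to wild-type enrichment, from inverse-variance-weighted replicate averages, with the logarithm in base 2.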

| Variant | polymerase ribozyme fitness (log ratio) |
| --- | --- |
| U33G U55C C76U G86U C105A C116U | ≤ -4.2 |
| C32U C76A G83U G92C C114U C123A | ≤ -4.2 |
| G34A C95U G136A | -0.0966 |
| C32A U55A C76U A89G G92U A119G | ≤ -4.2 |
| C32U C85A C99G G133C U139G | ≤ -4.2 |
| U33A G46U C75A G140C | ≤ -4.2 |
| C32G C38U G58A U82A C96A U104G A110C G133A U139A G152U | ≤ -4.2 |
| U33G A60G | -2.79 |
| C32U C125U | -2.22 |
| C32A A89C C95A | ≤ -4.2 |
| U33A A47C C99A | ≤ -4.2 |
| U33G G46C G71A U78G U90G A110C U127C G141C | ≤ -4.2 |
| U33G U56A A91U C116U | -3.95 |
| C32U U144A | -2.41 |
| U33G A52C G92C U139C | ≤ -4.2 |
| C32U U33G C38U C54U U77A A107U | -3.74 |
| U33G A41U G46C C54G G62C G70U C96A A120G G124U | ≤ -4.2 |
| U33A A40C A41U C93G | -3.86 |
| C32U C36U G68A G83U | ≤ -4.2 |
| C32A G58C A64U C85G | ≤ -4.2 |
| G34U A39U C43A C85U G117A | -3.98 |
| G34C G58A U77A U82G G86A C105A U127A G141C | ≤ -4.2 |
| C32U A52U U90C G128C | ≤ -4.2 |
| C32G A52C U61A G62C C63A C75U C93U | -4.14 |

| Variant | polymerase ribozyme fitness (log ratio) |
| --- | --- |
| C32U C51A A52U C96G G136U | ≤ -4.2 |
| G34C A66G G86U A107C G141U | ≤ -4.2 |
| U33A C75A A110U | ≤ -4.2 |
| U33C A39U G62A G86A A107U | ≤ -4.2 |
| C32U A49U | -4.14 |
| C32U A49C | -4.13 |
| C32G A49U G74U U77G A89U | ≤ -4.2 |
| U33C C57U G80U G83U C87U G128U | ≤ -4.2 |
| U33G A113C | -4.01 |
| C32G C35A | -3.92 |
| C32G C87U A107U A113C C116A | ≤ -4.2 |
| U33C C35G C36G G50C G94U | ≤ -4.2 |
| U33G C116U | -2.7 |
| C32U C87U C103G | ≤ -4.2 |
| U33A C57U C79G A89U A97G | ≤ -4.2 |
| U33A A39G U90A U130A | ≤ -4.2 |
| U33G U55A G70A G80C | ≤ -4.2 |
| U33G U44A A142G | ≤ -4.2 |
| C32U C38U C69A U78A C99G U101A U127C | ≤ -4.2 |
| C32G C99U | ≤ -4.2 |
| C32U A60G A142G | -3.31 |
| C32A C85U | -4.06 |
| U33G G117A U134C | -2.88 |
| U33C G81U C93G G143U | -4.06 |

| Variant | polymerase ribozyme fitness (log ratio) |
| --- | --- |
| U33A A41C U53C C57U G65A A66C G67C G80C | ≤ -4.2 |
| U33A C43G G50U G84A A89U | ≤ -4.2 |
| U33G A40C C116A | -3.88 |
| G34A A40U U45C C69A C76A C87U G94A A106G A122U G124C U151A | ≤ -4.2 |
| C32U A89U | -2.63 |
| G34A C75U | -3.68 |
| C32U C54G G68U C75A | -3.88 |
| C32G G42C A49U G94C C95A G126A | -3.97 |
| U33A C85U | -3.79 |
| U33A A37G C105U A106G | -4.07 |
| U33C A60U A73U A122G | -2.54 |
| C32A C85U A142U | ≤ -4.2 |
| G34A C79U A107C C108G C116G | ≤ -4.2 |
| C32G A91C U139G | ≤ -4.2 |
| C32G C38G C93G G133U | -3.72 |
| U33G U56C G81C C95U | -3.74 |
| C32A C38A U56A C69U C93A A122C G126U | ≤ -4.2 |
| C32U U101A | -3.76 |
| U33A C95U A142U G143U | -4.13 |
| G34A | -0.292 |
| G34U | -1.11 |
| G34C | -1.49 |
| C32G A37G G83U C87G A89G G133C | ≤ -4.2 |
| U33A G74A | ≤ -4.2 |

| Variant | polymerase ribozyme fitness (log ratio) |
| --- | --- |
| C32U A147C | -2.55 |
| C32A U61G U82A G92U C99G | ≤ -4.2 |
| U33A A91G | ≤ -4.2 |
| U33A A91C | ≤ -4.2 |
| C32G C85G U90G C118A G133U G140C C149G | ≤ -4.2 |
| G34A C43A G92U C118U | ≤ -4.2 |
| G34A U111C A113C G124U G152U | ≤ -4.2 |
| C32U C85U A89C A138C | ≤ -4.2 |
| U33G G62U C69U C103A G126C | ≤ -4.2 |
| C32U G62A C76G G84U C116U G140A C149U | ≤ -4.2 |
| C32U U53A G84U A120G G128U A142U | ≤ -4.2 |
| C32A C35U C57G G62A U90C C103G C116U C149U | ≤ -4.2 |
| U33G G50A C63G G94A C95G C116U | ≤ -4.2 |
| C32A A47U C87U | ≤ -4.2 |
| C32G C36U A64U C96U A107C G117U U134C A150C | ≤ -4.2 |
| C32U C54U | -1.22 |
| C32G G83A C85G C108G G124A U135G | ≤ -4.2 |
| C32U C63U A91U C96U A113U G124C | ≤ -4.2 |
| U33G G50A C93G G128A | ≤ -4.2 |
| G34A C69A A106G A147C | -3.75 |
| U33G U53A G58A | -3.78 |
| C32U G81U G84A G94C | -3.46 |
| U33C A52G G70A G92A A150G | -3.87 |
| C32U G88A U145G | ≤ -4.2 |

| Variant | polymerase ribozyme fitness (log ratio) |
| --- | --- |
| U33A C96A | ≤ -4.2 |
| G34A G140A | -3.88 |
| C32U C69A G84A C96G U111A | ≤ -4.2 |
| C32G C96U C116G G141U | ≤ -4.2 |
| U33A U56A U90A A122C U151G | ≤ -4.2 |
| U33G C43U A60U G88A U109G U135G G143A | -4.09 |
| U33G A40G C54U U55G A98G A147U A150C | ≤ -4.2 |
| C32G U55A | -3.78 |
| U33G C95A | -3 |
| C32G G59C C87G | ≤ -4.2 |
| U33A G46A G59A C103A A115G | -4.12 |
| C32U G83U G126A | -4.19 |
| C32A C35U C69A C75U A150G | ≤ -4.2 |
| U33G U44A G46C A73G C76A C95U G133U | ≤ -4.2 |
| C32G A37C C85G | ≤ -4.2 |
| C32A G50A A137G | ≤ -4.2 |
| G34C U139G | -3.21 |
| U33G A52G A73G G92C A107U C114U C125U U134C G141C | ≤ -4.2 |
| C32G U56A G94A C108U G124C U145A | ≤ -4.2 |
| G34U A39U U53A A64U C116U U146G | ≤ -4.2 |
| U33A G58A C96A G152U | -3.79 |
| C32U U33A U151A | -4.18 |
| C32G C76U G88C C96A C103U U127G C129A U139A A142U | ≤ -4.2 |
| U33C A41U C57U G70C G83A A119C | ≤ -4.2 |

| Variant | polymerase ribozyme fitness (log ratio) |
| --- | --- |
| C32G G92A U111G | -4.13 |
| G34C C76A C95U A142C | ≤ -4.2 |
| C32U A39G A40C C54A G94U A142U | ≤ -4.2 |
| C32G A49C C118U | ≤ -4.2 |
| C32U C93A | -4.11 |
| C32U C75U G88A A115C | ≤ -4.2 |
| U33C C54U C96U A107C | ≤ -4.2 |
| U33A C95U | -4.12 |
| U33G A60G C85A A97U A142C | ≤ -4.2 |
| U33C A39C G88A C118G C123A | ≤ -4.2 |
| U33G G46C C95U C99A A107G G133U | ≤ -4.2 |
| U33A U53A U148C | ≤ -4.2 |
| U33G G59A G94U | -3.39 |
| U33C A49C C57U U145A U151A | ≤ -4.2 |
| C32U G42U C79G C129A A138G U146C | ≤ -4.2 |
| G34A A91G | -3.57 |
| U33G G42C G88U G124U C125G | -3.86 |
| U33A A41C C87A U130G A147G | ≤ -4.2 |
| G34A A106U A142U | ≤ -4.2 |
| C32U A49C G92U C99A A115G A147C | ≤ -4.2 |
| U33G U56A U90A U101G C108G A119U U135C G136A | ≤ -4.2 |
| G34U A40G C72U C96G | ≤ -4.2 |
| C32G A110G A122C G141C | -4.02 |
| G34A G48C G59A U102G C114A G143U A147G | ≤ -4.2 |

| Variant | polymerase ribozyme fitness (log ratio) |
| --- | --- |
| C32U U53A A91C G94A C105G A121U U151C | ≤ -4.2 |
| C32A G88C G141C | ≤ -4.2 |
| C32G A47C G74C C116U C132A A138U | ≤ -4.2 |
| C32G A47C U55A U56G G67U G88A G100C C105U A137U G141U | ≤ -4.2 |
| C32G U61A G92U C131U | ≤ -4.2 |
| U33A A49C C76U G80U C149G | ≤ -4.2 |
| C32U A52G U77G A97C U144A | ≤ -4.2 |
| C32U A49C U55A G81A C85U U90A A106U A121U C125A | ≤ -4.2 |
| U33C C43U G126U | ≤ -4.2 |
| C32A U45A A60G C75U G81A U90G C116A | ≤ -4.2 |
| C32G C51U U53A G94A U101A A122G | ≤ -4.2 |
| C32G U146A | -3.88 |
| C32G U45C | -4.16 |
| C32A U53G C85U C96G G136C | ≤ -4.2 |
| U33A U102C A107U C125A | ≤ -4.2 |
| U33G A39U C116A U130G | -3.98 |
| U33G G58U A91C G143U | -3.87 |
| U33G G48C U53A C93U C149U | ≤ -4.2 |
| U33A G80A | -3.68 |
| C32U A40G C105A | -3.89 |
| U33G A37U A60C C75U G94U C108U | ≤ -4.2 |
| C32A A91U C99U A120C | ≤ -4.2 |
| G34A A37C C43U C125G U130A C149A | ≤ -4.2 |
